Measured values from US20100061942A1 (UNIVERSITY OF MEDICINE AND DENTISTRY OF NEW JERSEY, published 2010).

Biological target: human STIM1 (human, UniProt Q13586 23-685, limits assumed)
Assay: co-immunoprecipitation from CHO cell lysates, Western blot; repeated with cross-linker DSP and different detergents
Protocol: Next, the interaction of P311 with SOCE molecular machinery was examined experimentally. The interaction of P311 with known components of SOCE, such as STIM1 and Orai1, was studied. A GFP-myc-Orai1 plasmid and the mammalian expression plasmid containing the human STIM1 cDNA (OriGene, Inc.) were used. The plasmids were transfected into CHO cells and 36 hours after transfection, total cell lysates from CHO cells transiently expressing GFP-myc-Orai1 were incubated with either a polyclonal antibody against P311, or an anti-myc monoclonal antibody, with normal rabbit IgG serving as the control. […] Similar results were obtained when co-IP assays were repeated using reversible cross-linker DSP and different detergents in cell lysis buffer, including Triton X-100, NP-40 and CHAPS.

Sequence of human STIM1 (Q13586 23-685 limits assumed): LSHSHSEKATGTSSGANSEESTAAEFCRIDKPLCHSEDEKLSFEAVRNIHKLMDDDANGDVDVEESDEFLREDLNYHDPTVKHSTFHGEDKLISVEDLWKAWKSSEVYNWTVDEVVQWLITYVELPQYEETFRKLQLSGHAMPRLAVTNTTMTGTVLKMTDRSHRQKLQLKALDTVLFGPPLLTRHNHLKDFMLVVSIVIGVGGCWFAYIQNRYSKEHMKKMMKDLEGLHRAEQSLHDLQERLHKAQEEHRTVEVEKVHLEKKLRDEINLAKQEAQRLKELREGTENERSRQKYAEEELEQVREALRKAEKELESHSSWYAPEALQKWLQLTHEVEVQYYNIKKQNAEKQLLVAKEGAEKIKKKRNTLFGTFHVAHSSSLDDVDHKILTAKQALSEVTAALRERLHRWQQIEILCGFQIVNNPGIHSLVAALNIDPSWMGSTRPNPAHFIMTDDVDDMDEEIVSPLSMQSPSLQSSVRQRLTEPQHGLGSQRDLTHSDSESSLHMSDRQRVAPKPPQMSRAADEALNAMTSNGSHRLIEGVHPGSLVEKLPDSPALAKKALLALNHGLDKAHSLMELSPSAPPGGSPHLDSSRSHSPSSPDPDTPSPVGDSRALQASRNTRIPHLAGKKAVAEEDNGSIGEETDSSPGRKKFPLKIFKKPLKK

- binding result: no binding
B1: P311 (endogenous P311 present in CHO cells) (other)
chain: MVYYPGLLVWVSQEPFLYKEMEGSLTKGRLPVPKEVNRKKLEEARAASMTPPGSHELCFPNISYL
